Source: IntAct's records for PubMed 26449471

B1: Sestrin-2 (Homo sapiens), P58004 (parent)
chain: MIVADSECRAELKDYLRFAPGGVGDSGPGEEQRESRARRGPRGPSAFIPVEEVLREGAESLEQHLGLEALMSSGRVDNLAVVMGLHPDYFTSFWRLHYLLLHTDGPLASSWRHYIAIMAAARHQCSYLVGSHMAEFLQTGGDPEWLLGLHRAPEKLRKLSEINKLLAHRPWLITKEHIQALLKTGEHTWSLAELIQALVLLTHCHSLSSFVFGCGILPEGDADGSPAPQAPTPPSEQSSPPSRDPLNNSGGFESARDVEALMERMQQLQESLLRDEGTSQEEMESRFELEKSESLLVTPSADILEPSPHPDMLCFVEDPTFGYEDFTRRGAQAPPTFRAQDYTWEDHGYSLIQRLYPEGGQLLDEKFQAAYSLTYNTIAMHSGVDTSVLRRAIWNYIHCVFGIRYDDYDYGEVNQLLERNLKVYIKTVACYPEKTTRRMYNLFWRHFRHSEKVHVNLLLLEARMQAALLYALRAITRYMT
partner: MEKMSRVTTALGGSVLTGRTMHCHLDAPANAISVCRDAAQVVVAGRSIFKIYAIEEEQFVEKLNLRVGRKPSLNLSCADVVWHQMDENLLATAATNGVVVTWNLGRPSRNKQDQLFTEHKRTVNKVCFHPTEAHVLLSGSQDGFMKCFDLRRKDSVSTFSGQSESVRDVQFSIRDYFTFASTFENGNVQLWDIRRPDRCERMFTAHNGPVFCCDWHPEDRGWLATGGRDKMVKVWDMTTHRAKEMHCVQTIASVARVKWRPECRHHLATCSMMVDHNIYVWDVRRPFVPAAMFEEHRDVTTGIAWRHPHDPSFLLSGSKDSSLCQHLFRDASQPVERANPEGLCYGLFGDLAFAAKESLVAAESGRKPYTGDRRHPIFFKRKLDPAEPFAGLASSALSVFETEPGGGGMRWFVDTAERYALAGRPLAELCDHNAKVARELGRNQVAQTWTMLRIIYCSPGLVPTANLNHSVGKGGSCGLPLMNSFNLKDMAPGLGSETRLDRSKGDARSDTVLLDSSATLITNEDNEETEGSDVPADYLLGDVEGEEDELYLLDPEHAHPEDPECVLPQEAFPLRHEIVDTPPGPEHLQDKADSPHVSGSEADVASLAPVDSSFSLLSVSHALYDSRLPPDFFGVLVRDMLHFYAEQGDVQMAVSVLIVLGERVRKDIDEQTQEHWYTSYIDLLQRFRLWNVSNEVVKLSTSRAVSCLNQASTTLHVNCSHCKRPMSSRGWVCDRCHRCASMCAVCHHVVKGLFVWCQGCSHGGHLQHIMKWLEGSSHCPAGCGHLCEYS

Variants of: B1
Details: with wdr24_human WDR24, Q96S15

Variant	effect of a mutation on the interaction
MIVADSECRAELKDYLRFAPGGVGDSGPGEEQRESRARRGPRGPSAFIPVEEVLREGAESLEQHLGLEALMSSGRVDNLAVVMGLHPDYFTSFWRLHYLLLHTDGPLASSWRHYIAIMAAARHQCSYLVGSHMAEFLQTGGDPEWLLGLHRAPEKLRKLSEINKLLAHRPWLITKEHIQALLKTGEHTWWLAELIQALVLLTHCHSLSSFVFGCGILPEGDADGSPAPQAPTPPSEQSSPPSRDPLNNSGGFESARDVEALMERMQQLQESLLRDEGTSQEEMESRFELEKSESLLVTPSADILEPSPHPDMLCFVEDPTFGYEDFTRRGAQAPPTFRAQDYTWEDHGYSLIQRLYPEGGQLLDEKFQAAYSLTYNTIAMHSGVDTSVLRRAIWNYIHCVFGIRYDDYDYGEVNQLLERNLKVYIKTVACYPEKTTRRMYNLFWRHFRHSEKVHVNLLLLEARMQAALLYALRAITRYMT [S190W]	disrupting interaction strength
